Data on 1 variant can be found in IntAct's records for PubMed 21799911.

The labels stand for the following.
B1: E3 ubiquitin-protein ligase RNF146 (Homo sapiens), Q9NTX7 (parent)
chain: MMAGCGEIDHSINMLPTNRKANESCSNTAPSLTVPECAICLQTCVHPVSLPCKHVFCYLCVKGASWLGKRCALCRQEIPEDFLDKPTLLSPEELKAASRGNGEYAWYYEGRNGWWQYDERTSRELEDAFSKGKKNTEMLIAGFLYVADLENMVQYRRNEHGRRRKIKRDIIDIPKKGVAGLRLDCDANTVNLARESSADGADSVSAQSGASVQPLVSSVRPLTSVDGQLTSPATPSPDASTSLEDSFAHLQLSGDNTAERSHRGEGEEDHESPSSGRVPAPDTSIEETESDASSDSEDVSAVVAQHSLTQQRLLVSNANQTVPDRSDRSGTDRSVAGGGTVSVSVRSRRPDGQCTVTEV

The variants in the assay derive from B1. The note with it: with parp1_human PARP1, P09874.
Sequence of parp1_human PARP1, P09874 (P09874 whole entry): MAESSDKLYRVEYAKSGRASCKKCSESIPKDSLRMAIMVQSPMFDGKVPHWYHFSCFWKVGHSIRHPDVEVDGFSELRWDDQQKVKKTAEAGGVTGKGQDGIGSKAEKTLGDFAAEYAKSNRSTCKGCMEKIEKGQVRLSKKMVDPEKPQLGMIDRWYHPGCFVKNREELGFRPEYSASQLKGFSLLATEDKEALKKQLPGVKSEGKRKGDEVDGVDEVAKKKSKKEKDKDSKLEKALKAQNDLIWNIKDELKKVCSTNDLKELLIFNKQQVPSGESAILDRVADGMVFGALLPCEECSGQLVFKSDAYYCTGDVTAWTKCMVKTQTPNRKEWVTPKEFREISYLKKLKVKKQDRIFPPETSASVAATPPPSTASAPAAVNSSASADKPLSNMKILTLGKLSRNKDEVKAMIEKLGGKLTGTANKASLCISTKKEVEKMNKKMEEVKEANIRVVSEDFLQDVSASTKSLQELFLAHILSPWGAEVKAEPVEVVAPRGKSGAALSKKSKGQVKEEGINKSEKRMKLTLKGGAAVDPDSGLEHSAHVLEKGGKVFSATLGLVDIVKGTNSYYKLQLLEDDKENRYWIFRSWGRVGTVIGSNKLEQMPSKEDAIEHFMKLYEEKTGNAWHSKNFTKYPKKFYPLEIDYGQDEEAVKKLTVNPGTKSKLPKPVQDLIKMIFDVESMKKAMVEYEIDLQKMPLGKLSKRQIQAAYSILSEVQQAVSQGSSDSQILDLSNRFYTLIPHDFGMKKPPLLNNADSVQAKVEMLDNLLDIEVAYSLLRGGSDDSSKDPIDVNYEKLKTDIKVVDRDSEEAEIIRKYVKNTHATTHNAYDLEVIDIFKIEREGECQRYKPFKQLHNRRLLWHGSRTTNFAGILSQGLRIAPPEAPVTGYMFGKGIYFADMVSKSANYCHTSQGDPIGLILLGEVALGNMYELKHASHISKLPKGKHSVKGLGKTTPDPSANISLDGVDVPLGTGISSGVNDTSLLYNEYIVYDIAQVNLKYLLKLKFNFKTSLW
Regarding H54A, the “effect of a mutation on the interaction” value was “with no effect”.
